Measurements: the supplement of paper PMC9170038

Test system: K4 kissing-loop RNA reporter
Test: apparent KD of K4 kissing-loop reporter; higher = weaker reporter binding
Conditions: Eterna round: R107
Method: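 RNA-MaP round R107: designed RNA switches with theophylline, tryptophan, arginine or FMN aptamers are transcribed on-chip within common flanks. They are titrated with a labelled K4 kissing-loop RNA reporter in RNA-MaP buffer (100 mM Tris pH 7.5, 80 mM KCl, 4 mM MgCl2), without ligand or with the indicated ligand. Median apparent KD per design.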

[1] = input ligand: theophylline 20 uM
[2] = input ligand: tryptophan 2.4 mM
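Further: bound reporter read as fluorescence of individual clusters on recovered sequencing chips by microscopy, with normalized cluster intensities fitted with a binding model.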

Row | Sequence | apparent KD of K4 kissing-loop reporter (input ligand: FMN 200 uM) [nM] | apparent KD of K4 kissing-loop reporter (input ligand: arginine 13.2 mM) [nM] | apparent KD of K4 kissing-loop reporter (input ligand: none) [nM] | apparent KD of K4 kissing-loop reporter [1] [nM] | apparent KD of K4 kissing-loop reporter [2] [nM]
1 | AAGGUCACUACUACAGUGAUGUUGUAGGAGCAGGAUAUGCAGAAAUGCAGAAGGGCUCGCUCCAGGUGACCGAAUGAAACAUUCA [Omei KL FMN A SS A v3] | 333 | 504 | 573 | 475 | 501
2 | AAGGUUCGUGGAAGGAGCGCCCGUGCGACUCGUUCAGUAAGUGAAGUCCGAGUGAUGUUCGGGCAGGUAGGUCGCCACGGGCAAA [Usontezaon] | 196 | 137 | 160 | 123 | 157
3 | AAGGUUGUGCAUGGGAGUGAUGUUCCCACGCAGGAUAUCGCUCACGCGAGAAGGGCGAGCACAACCGCUCAAGAAACUUGAGCAA [Omei KL FMN A SS C v2] | 133 | 118 | 133 | 106 | 126
4 | AAGUCACAGGCAGGAUAUGCUUAGUAAUAAGGCCAUAUAUACGUAUAGAGUGAUGUUUUGUACCAGGCAGAAGGGCUACAUCCGU [FMN B Excl V3 (+2GCs)] | 876 | 503 | 882 | 650 | 597
5 | AAGUCACAGGCAGGAUAUGCUUAGUAUUAAGGCCAUAUAUACGUAUAGAGUGAUGUUUUGUACCAGGCAGAAGGGCUACAUCCGU [FMN B Excl V4 (+U)] | 930 | 440 | 656 | 645 | 463
6 | AAGUCAUAGGCAGGAUAUGCAUUGUAGUAAGGCAAUAUAUACGUAUAGAGUGAUGUUUUGUACCAGGCAGAAGGGCUACAUCAGU [FMN B Excl V11 (+G)] | 826 | 367 | 645 | 868 | 492
7 | AAGUCUCGUUAAUUCGUGGUUUCGAUCGAUACCAGUAGCGAGAGUUACCCUUGGCAGCGAAAUGAGUGAUGUUCAUGAAAGAAGA [KL-XTheoA10] | 65.1 | 101 | 64.6 | 107 | 60
8 | AAGUGAUGUUGUAGUGAUGUUGUGAUGUUGCAGGAUAUAUAGUGAUGUAGAAGGGUAUGUACUUAUUUUUUUUUUGAGUUUUGUU [xgghzrmullin] | 82 | 32.3 | 60.2 | 47.1 | 68.3
9 | AAGUGUGUGGCGGCCGCCACUAGUCUCCAGUGAUGUUGGAGAUAUCACGUAAGUGAUAUCCGACAUAGGACCGGGCCAUAUAGAA [Same State - Tryptophan B (Freestyle 21)] | 601 | 318 | 688 | 556 | 474
10 | AAUAAAAUCACGGCCGCCACUGAUACUAGUAUUAGCAGUGAUGUUGCUAUGUAUAAUUUAUUAAAUAGGACCGGGUGAAUAUUUA [#25 K4 Tryptophan B Exclusion] | 298 | 220 | 267 | 350 | 256
11 | AAUAAAAUCACGGCCGCCACUGAUGCUAAUAUUAGCAGUGAUGUUGCUAUGUAUAUUUUAUUUAACAGGACCGGGUGAAUAUUUA [JR_ExcTryptoB_Sub014] | 225 | 184 | 228 | 212 | 133
12 | AAUAAAAUCACGGCCGCCACUGAUUUUUUUAUUAGGAGUGAUGUUCCUAUGACUAUAUUAUUUAACAGGACCGGGUGAAUAUUUA [JR_SSTryptoB_Sub023] | 79.6 | 97.5 | 87.4 | 93.3 | 74.5
13 | AAUAAAAUCACGGCCGCCACUGAUUUUUUUAUUAGGAGUGAUGUUCCUUUGUCUAUAUACCUUAACAGGACCGGGUGAAUAUUUA [JR_SSTryptoB_Sub022] | 54.3 | 93.4 | 67.4 | 95.5 | 52.1
14 | AAUAAAAUCACGGCCGCCACUGGUACUAGUAUUAGCAGUGAUGUUGCUAUGUAUAAUUUAUUAAAUAGGACCGGGUGAAUAUUUA [#27 K4 Tryptophan B Exclusion] | 326 | 281 | 238 | 233 | 208
15 | AAUAACUAGUAUAUUUGUAAUAAAACAGAUACCAGUGAUAAUAAACACCCUUGGCAGCUGAUCGAGUGAUGUUCGUUUAUUUUAA [JR_SSTheophyA_Sub004] | 102 | 96.5 | 124 | 130 | 78.5
16 | AAUAACUAGUAUUUUUUUAAUAAUACAGAUACCAGUGAUAAUAAACACCCUUGGCAGCUGAUCGAGUGAUGUUCGUUUAUUUUAA [JR_SSTheophyA_Sub003] | 57.3 | 83.3 | 64 | 112 | 54
17 | AAUAAGCGCGGAAGGAGCGCCGCCAGUGAUGUUGGGAGUUAGAUACCAGUGAUGUUGGGCCGGCAGGUAGGUCGCCGCAAAGCUU [Exclusion Arginine B Gf 14] | 208 | 86.5 | 165 | 137 | 138
18 | AAUAAUGGAGUGAUGUUCCAGUAAUGGGAUACCAGACAUGAAAAUGUCCCUUGGCAGCUCAAAGGUCUAGUGAUGUUAGAAAGAA [KL-SSTheo-A5 #Double Kiss] | 273 | 300 | 310 | 282 | 232
19 | AAUACAGUGUCGGCCGCCACUGUAACAUGCCAUGAGACAUGAGACAUGAGUGAUGUUCAUGUAGACAGGACCGGGACUCAUGUAU [KL-SSTryp-B3 #analogue] | 450 | 373 | 455 | 370 | 227
20 | AAUACGUUCACGGCCGCCACUGAAUAAUUGGUAAGUAGUGAUGUUACUUUACAUAUCUUAUUUAACAGGACCGGGUGAUCGUUUA [JR_Nu_ExcTryptoB_Sub028] | 130 | 108 | 122 | 105 | 142
21 | AAUAUAAAGCAGUGAUGUUGCUUAUGAGAAGGAGCGCACGAAAGUGCAGGUAGGUCGCUCAGCCAAGUGGACGAAAACGUCCACA [whbob_SS_Arginine_A_sa106] | 82.1 | 92.5 | 86.3 | 85.3 | 72.1
22 | AAUAUAGUGAUGUUAUAUAAGAAGGAGUUACGAGGACCGGUACGGCCGCCACUCGAAACGAGUGAGGAUUUGGGAGAUUGGGUUU [SSTryptA.M] | 493 | 443 | 474 | 324 | 389

Row | Sequence | apparent KD of K4 kissing-loop reporter (input ligand: FMN 200 uM) [nM] | apparent KD of K4 kissing-loop reporter (input ligand: arginine 13.2 mM) [nM] | apparent KD of K4 kissing-loop reporter (input ligand: none) [nM] | apparent KD of K4 kissing-loop reporter [1] [nM] | apparent KD of K4 kissing-loop reporter [2] [nM]
23 | AAUCAAUACAGAAGGAGCGUGACAAUUACUAUUGAAUUAGGAGCUAGUGAUGUUAGCAUAACACAGGUAGGUCGCUGUACAUUUA [JR_SSArginiB_Sub012] | 145 | 175 | 163 | 182 | 148
24 | AAUCAAUACAGAAGGAGCGUGACAAUUACUAUUGAUUCAGGAGCUAGUGAUGUUAGCAUUUCACAGGUAGGUCGCUGUACAUUUA [JR_SSArginiB_Sub013] | 165 | 203 | 201 | 213 | 153
25 | AAUCGCAGUGAUGUUGCGAUUCCGUUGAGGGAGGAUAUUGGUAAUACAAGAAGGUUCGGUUACGGGAGAUGUUAGUAAUAGGGCC [Exclusion FMN A GF21] | 46.2 | 41.3 | 61.8 |  | 85.2
26 | AAUGGAGGCUGAAGGAGCGCCGCCAGUGAUGUUGGGAGUUAGAUACCAGUGAUGUUGGGCCGGCAGGUAGGUCGCGGUUUUUAUU [Exclusion Arginine B Gf 16] | 186 | 78.4 | 136 | 153 | 126
27 | AAUGUACAGGGAAGGAGCGUAGUCCAGUGAUGUUGGAAUUAAAUUCCUGUGAUGUUGGUUAUACAGGUAGGUCGCCCUAAAGUGC [KL-XARG-B21] | 112 | 92.2 | 108 | 118 | 93.3
28 | AAUUUAGUGACGGCCGCCACUAGGGUGAUUUUUUUGUUUGAGUGAUGUUUUGAUGUUUGAUUUUGUAGGACCGGGUUAGGUGAUG [cccmullin] | 327 | 310 | 343 | 364 | 262
29 | AAUUUAGUGACGGCCGCCACUAUGGUGAUUUAUUUGUUUGAGUGAUGUUUUGAUGUUUGAUUUUGUAGGACCGGGUUAGGUGAUG [aaacmullin] | 355 | 293 | 364 | 354 | 279
30 | AAUUUAUUAACUGAUACCAGACUUAAUGAAUUGUAAAUUACUAGUGAUGUUAGUGAAUCUGUCCCUUGGCAGCAGUAUUUAUUAA [JR_ExcTheophyB_Sub010] | 144 | 209 | 173 | 208 | 124
31 | AAUUUAUUAUCUGAUACCAGACUUUUUCUUGUUUAUAAGUCAAGUGAUGUUUGACUUUUAGUCCCUUGGCAGCAGUAUUUUUUAA [JR_Nu_SSTheophyB_Sub026] | 125 | 128 | 123 | 113 | 114
32 | ACACGCAACUAUAGACCAGUGAUGUUGGAACGAGGACCGGUACGGCCGCCACUCGAGCGGACGAUCUACGCCUCUUAUGCUAACG [theeternabot_exclusion_KL_Trp_A_15] | 482 | 481 | 552 | 545 | 350
33 | ACACUAUCGUCAUAGACGGUAGUGAAAAGUGAGGAUAUGAGUGAUGUUAGAAGGCACUAAGACUGUAUCGAAUAGAUACAGUCAA [FmnA 4 #K4BetweenAptamer #OpenEnded] | 803 | 262 | 384 | 292 | 349
34 | ACACUAUCGUCAUAGACGGUAGUGAAAGCUCAGGAUAUGAGUGAUGUUAGAAGGGAGUAAAUCUUAGGUAUCGAAUAGAUACCAA [FmnA 7 #K4BetweenAptamer #OpenEnded] | 1220 | 364 | 508 | 287 | 416
35 | ACAUCGGUUGAGAGUGAUGUUCCUUGUGUUCGAGGACCGGUACGGCCGCCACUCGGGUAGAAAAUAACAGAUGUGUUUCCUUUUU [BDazzled - #18 SS Tryptophan A] | 164 | 80.5 | 171 | 181 | 209
36 | ACCAUCAAAGAUGGCCAGGACUCAACUGAUACCAGAGUGAAAACACUCCCUUGGCAGCAGGUGAGUGAUGUUCACGAGUCCUGGA [Omel KL Theo A SS B v7] | 117 | 82 | 215 | 168 | 147
37 | ACCAUUUUACCGGCAGUAGUGAUGUUACUCCGAGGACCGGUACGGCCGCCACUCGCGAACGUAGGGUCGCGCACUCAAAGAGUGC | 100 | 75.6 | 106 | 67 | 89.7
38 | ACCCUGGGUCCCGAAAGGGACCCAGGGAGUGAGGAUAUGUGGAAACACAGAAGGCACAGCACAGUGAUGUUGUGCGACGAAAGUC [#02 K4 FMN A Same State] | 566 | 97.5 | 401 | 175 | 217
39 | ACCGCAUUGGGAUGAUCCCAAUGCGCUGGUCGAGGACCGGUACGGCCGCCACUCGUCCAGUGAUGUUGGACUAGGGCAACUGAAG [Bileesma] | 519 | 270 | 261 | 303 | 109
40 | ACCUACCAUUAGUGAUGUUAAUGGACGGAAGGAGCGCGGAUAUCCGCAGGUAGGUCGCCGAAGGCUAGACAUUGUCUAGCCAUUA [AK1.2 SS Arginine A] | 225 | 186 | 196 | 166 | 182
41 | ACCUACGAUCACAAAAGUGAUUGUAGGAUCUAGGAUAUGCUGAAGAGCAGAAGGAGAGUGAUGUUCUCAACUCACGAAAGUGAGA [whbob_Ex_FMNA__2th188] | 382 | 222 | 198 | 258 | 175
42 | ACGAUCAUGUCGGCCGCCACUGAGAGUAGUGAUGUUACUUUUAUGUUUUAGUUAUAAUAUUUGAACAGGACCGGGACAUGUUCGU [JR_ExcTryptoB_Sub023] | 103 | 84.8 | 85.3 | 80.1 | 92.2
43 | ACGAUUUACAGAAGGAGCGUGUAUUUAACUACAAUUAUCUUAGCGAGUGAUGUUCGUUUUACACAGGUAGGUCGCUGUAUAUCGA [JR_ExcArginiB_Sub011] | 218 | 303 | 263 | 374 | 220
